Reference: US11771766B2, “Drug delivery system containing phospholipid and cholesterol” (Taiwan Liposome Co., Ltd, priority 2009, dated 2023)

Experiments:
[1] = Gel filtration (Sepharose 4B) of drug/delivery vehicle mixtures: percentage of non-associated drug; format: physicochemical; details: mixed with DOPC/DOPG/cholesterol vehicle (weight ratio 8.8/1/1.6), 50 mM phosphate buffer pH 6.2
Procedure: DOPC, DOPG, and cholesterol at a weight ratio of 8.8/1/1.6 were dissolved in chloroform, which was then evaporated under vacuum using a rotary evaporator. The dried mixture of the phospholipids and cholesterol thus produced was suspended in deionized water to form an aqueous suspension. The suspension is then homogenized via sonication using a cup horn sonicator (Misonix Sonicator 3000), sterilized by filtration, filled aseptically in a vial, and lyophilized to form a phospholipid-cholesterol-containing delivery vehicle. The phospholipid concentration in the vehicle was determined by a conventional phosphorus assay to ensure that the vehicle contained an appropriate total amount of the phospholipids.
The mixtures thus formed were diluted 18-100-fold in the same phosphate buffer and an aliquot of each mixture ([…]) was subjected to gel-filtration to determine the percentage of the therapeutic agent that was in non-associated form. Briefly, an aliquot of a mixture was loaded onto a Sepharose 4B column (diameter: 1.8 mm; length: 315 mm). The components in the mixture were then eluted by 50 mM phosphate buffer (pH 6.2). Fractions containing the therapeutic agent in different form, i.e., non-associated form or associated with the phospholipids, were collected, their absorbance being measured at 215 nm and 254 nm. The amount of the therapeutic agent in each fraction was determined based on the values of OD215 and OD254.

[2] = Pharmacokinetic properties of vitreous Avastin after intravitreal injection (Example 6); format: in vivo, Rabbits
Procedure: Rabbits were injected intravitreally with either Avastin alone (control rabbits) or Avastin mixed with a delivery vehicle containing DOPC/Cholesterol/DOPG at a ratio 67.5/25/7.5 (test rabbits). Vitreous Avastin concentrations of the control rabbits were examined by ELISA at days 7, 21, and 28 post injection and those of the test rabbits were examined at days 7, 21, 28, 35, 41, and 49 post injection.
In a similar study, the vitreous Avastin concentrations were monitored 7, 28, 49, 70, 91 and 112 days post intravitreal injection.

[3] = Vitreous Avastin concentration after intravitreal injection, by ELISA (Examples 2-5); format: in vivo, New Zealand White rabbits; details: Avastin dose 1.25 mg per eye
Procedure: The effect of the delivery vehicles mentioned above in prolonging the lifetime of Avastin in eyes was examined following the method described in Bakri et al., Ophthalmology, 2007, 114:5, 855-859. Briefly, New Zealand White rabbits were sedated by intramuscular injection of a mixture containing Zoletil (15 mg/ml) and Rompun (7 mg/ml). Both eyes of each rabbit were injected intravitreally with 50 μl of Avastin (25 mg/ml) or one of the aqueous suspensions mentioned above (at an Avastin dose of 1.25 mg per eye) using a 30-gauge needle. Rabbits were sacrificed at 7 days or 21 days after injection and their eyes were promptly enucleated. The vitreous humor was isolated from each eye together with retina and Avastin concentration was determined by ELISA as follows.
A F96 MaxiSorp™ NUNC-IMMUNO plate was coated with VEGF (10 μg/ml in PBS, pH 7.4; 100 μl/well) at 4° C. overnight. The VEGF-coated plate was washed with PBS and then blocked with a blocking buffer (5% skim milk in PBS) at room temperature for 1 hour. […] The absorbance at 450 nm (OD450) of each well was determined by an ELISA reader. Various pre-determined Avastin concentrations (3.125-25 ng/ml) were used to establish a standard Avastin concentration/OD450 curve. The Avastin concentration in each sample was determined based on its OD450 value in view of the standard curve. […]

C[C@@H]1C[C@H]2[C@@H]3CCC4=CC(=O)C=C[C@]4(C)[C@@]3(F)[C@@H](O)C[C@]2(C)[C@@]1(O)C(=O)COP(=O)(O)O [Dexamethasone sodium phosphate, dexamethasone sodium phosphate]
Percentage of Non-Associated Drug (% ± S.D.) [1]: 68.5 ± 0.5%

N[C@@H](Cc1c[nH]c2ccccc12)C(=O)O [Tryptophan, tryptophan]
Percentage of Non-Associated Drug (% ± S.D.) [1]: 86.1 ± 0.8%

N[C@@H](Cc1ccc(O)cc1)C(=O)O [Tyrosine, tyrosine]
Percentage of Non-Associated Drug (% ± S.D.) [1]: 80.3 ± 0.1%

Avastin: an antibody specific to vascular endothelial growth factor
vitreous Avastin concentration ([2]; 28 days after intravitreal injection): 13 µg/mL | t1/2 (half-life of intravitreal Avastin) ([2]; control rabbits, vitreous): 3.9 days | vitreous concentration of Avastin over time (in words, FIG. 1) ([2]; days 7 to 49 after intravitreal injection): decreased much rapidly over time | AUC(7-∞) ([2]; vitreous, from the 7th day to infinity): 3294 µg·days/mL | AUC(7-112) ([2]; vitreous, from the 7th day to the 112th day): 3294 µg·days/mL | AUC(112-∞) ([2]; vitreous, from the 112th day to infinity): 0 µg·days/mL | Avastin Concentration ([3]; vitreous humor with retina, seven days after intravitreal injection): 247 ± 27 µg/mL | Avastin Concentration ([3]; vitreous, 21 days after intravitreal injection): 37 ± 7 µg/mL | Percentage of Non-Associated Drug (% ± S.D.) [1]: 62.1 ± 0.9%

HFRRHLC [HFRRHLC (SEQ ID NO: 1) peptide]
Percentage of Non-Associated Drug (% ± S.D.) [1]: 71.9 ± 0.2%

HWRGWVC [HWRGWVC (SEQ ID NO: 2) peptide]
Percentage of Non-Associated Drug (% ± S.D.) [1]: 52.4 ± 0.2%

bovine serum albumin
Percentage of Non-Associated Drug (% ± S.D.) [1]: 87.2 ± 0.4%
